In PMC6304784, “Pathological mutations differentially affect the self-assembly and polymerisation of the innate immune system signalling adaptor molecule MyD88” (BMC Biology, 2018):

B1: GFP-tagged MyD88 TIR domain (residues 159-296) (domain or fragment, human, UniProt Q99836 159-296, looked up)
chain: ERFDAFICYCPSDIQFVQEMIRQLEQTNYRLKLCVSDRDVLPGTCVWSIASELIEKRCRRMVVVVSDDYLQSKECDFQTKFALSLSPGAHQKRLIPIKYKAMKKEFPSILRFITVCDYTNPCTKSWFWTRLAKALSLP
notes: MyD88 TIR domain, residues 159-296; also called TIR domain alone; source: in vitro translated in Leishmania tarentolae extract (LTE), measured without purification; not shown: GFP, N-terminal, kept
B2: GFP-tagged MyD88 death domain (residues 1-117, includes part of the intermediate domain) (domain or fragment, human, UniProt Q99836 1-117, looked up)
chain: MAAGGPGAGSAAPVSSTSSLPLAALNMRVRRRLSLFLNVRTQVAADWTALAEEMDFEYLEIRQLETQADPTGRLLDAWQGRPGASVGRLLELLTKLGRDDVLLELGPSIEEDCQKYI
notes: MyD88 death domain with the crucial part of the intermediate domain, residues 1-117; also called DD; death domain alone; source: in vitro translated in Leishmania tarentolae extract (LTE), measured without purification; not shown: GFP, N-terminal, kept

Target: the molecule itself
Assay: single-molecule fluorescence fluctuation spectroscopy (brightness B parameter, time-traces, intensity histograms); GFP-tagged protein freely diffusing in the cell-free expression mixture on a confocal microscope, 488-nm laser; dilution series of the DNA template giving 0 to about 320 nM protein; mutants compared at 150 nM; samples diluted 10 times in buffer A

Protein	average brightness B (> 150 nM) relative to monomeric sfGFP [fold over monomeric GFP]
B1	~4
B2	~8
